In US20250041379A1, “METHODS AND COMPOSITIONS FOR THE TREATMENT OF CANCER” (Vigeo Therapeutics, Inc., priority 2021, published 2025):
No end group written: not given here.

Assays:
[1] = test system: subjects with pancreatic cancer; experiment: Phase I/II clinical study (NCT03364400): adverse events in subjects with pancreatic cancer; type: in vivo, human
Procedure: VT1021 was evaluated in a recently completed phase I/II open-label, multicenter, dose escalation (Part 1) and expansion (Part 2) clinical study in advanced, refractory, solid tumors including pancreatic cancer (NCT03364400). Seven subjects with pancreatic cancer were dosed in Part 1 and 32 were dosed in Part 2, 17 of which were considered evaluable as having completed ≥1 cycle of VT1021 treatment and tumor imaging during cycle 2. […] In the “expansion stage” of the VT1021-01 Study, subjects diagnosed with recurrent GBM, pancreatic cancer, ovarian cancer and other solid tumors were enrolled. They were treated with VT1021 at 11.8 mg/kg, twice weekly by IV infusion. The blood samples were collected from the clinical study at pre-treatment, 0, 2, 4, 6 hours post treatment to measure the levels of VT1021 (FIG. 2). The tumor biopsy samples prior to treatment and during treatment were collected from the clinical study to measure expression levels of biomarkers including CD36 and CD47, as well as cell surface markers for immune cell populations in the TME by immunohistochemistry assays (FIG. 3, FIG. 4, FIG. 5). The correlation between days on study and tumor shrinkage versus expression profile of CD36 and CD47 was analyzed (FIG. 4). The general expression profile of CD36 and CD47 has been assessed by IHC on Tumor Tissue Microarrays (TMAs), which contain biopsy samples collected from pancreatic cancer patients. TMAs were purchased from commercial sources, not related to the VT1021-01 clinical study. Common adverse effects (AEs) in escalation subjects with pancreatic cancer (Part 1) are shown in Table 1 The AEs shown occurred in 2 or more subjects, all cycles, maximum grade, regardless of toxicity). Of 39 pancreatic cancer subjects enrolled and dosed, 7 subjects were enrolled in the Part 1 escalation cohort. All 7 subjects reported at least one AE (regardless of causality). Four subjects had at least one AE, which was probably or possibly related to the study drug. […] Five subjects reported at least one severe adverse event (SAE) (regardless of causality). Two subjects had SAEs definitely or possibly related to study drug: infusion related reaction (grade 3), altered mental status (grade 2). Thirty-two subjects were enrolled in the Part 2 […] cohort. Thirty subjects reported at least one AE (regardless of causality). Eighteen subjects had at least one AE definitely, probably or possibly related to the study drug. Twenty subjects reported at least one SAE (regardless of causality). Two subjects had SAEs possibly related to study drug: thrombosis (grade 3), fever (grade 1)

[2] = test system: animal models of ovarian, pancreatic, and breast cancer; experiment: Preclinical studies in animal models of cancer; type: in vivo; conditions: multiple animal models of ovarian
[3] = Part 1 escalation cohort, 7 pancreatic cancer subjects
[4] = Part 1 escalation, pancreatic cancer, all cycles, maximum grade
[5] = Part 2 cohort, 32 pancreatic cancer subjects
[6] = Part 2 expansion, pancreatic cancer, all cycles, maximum grade

cyclic DWLPK (also: cyclic, mode of cyclisation not given here) [VT1021, 5-amino acid cyclic peptide from prosaposin; Tsp-1-inducing agent]
1 subjects: Abdominal pain (AE), Grade 3 [1, 4] | Constipation (AE), Grade 1 [1, 4] | Constipation (AE), Grade 3 [1, 4] | Infusion related reaction (AE), Grade 2 [1, 4] | Infusion related reaction (AE), Grade 3 [1, 4] | Anaemia (AE), Grade 3 [1, 6] | Nausea (AE), Grade 3 [1, 6]
8 subjects: Constipation (AE), Total [1, 6] | Diarrhoea (AE), Total [1, 6] | Fatigue (AE), Grade 2 [1, 6]
11 subjects: Decreased appetite (AE), Total [1, 6]
robust anti-tumor activity: anti-tumor activity [2]
9 subjects: Abdominal pain (AE), Grade 2 [1, 6]
Twenty: subjects reporting at least one SAE (regardless of causality) [1, 5]
10 subjects: Nausea (AE), Grade 1 [1, 6]
no dose-limiting toxicity: dose-limiting toxicity [1, 3]
14 subjects: Fatigue (AE), Total [1, 6] | Nausea (AE), Total [1, 6]
4 subjects: Abdominal pain (AE), Total [1, 4] | Abdominal pain (AE), Grade 3 [1, 6] | Alanine aminotransferase increased (AE), Grade 1 [1, 6] | Anaemia (AE), Grade 1 [1, 6] | Blood bilirubin increased (AE), Grade 3 [1, 6] | Constipation (AE), Grade 1 [1, 6] | Constipation (AE), Grade 2 [1, 6]
Two: subjects with SAEs definitely or possibly related to study drug ([1]; Part 1, 7 pancreatic cancer subjects, infusion related reaction (grade 3), altered mental status (grade 2)) | subjects with SAEs possibly related to study drug ([1]; Part 2, 32 pancreatic cancer subjects, thrombosis (grade 3), fever (grade 1))
Thirty: subjects reporting at least one AE (regardless of causality) [1, 5]
Four: subjects with at least one AE probably or possibly related to the study drug [1, 3]
6 subjects: Alanine aminotransferase increased (AE), Total [1, 6] | Aspartate aminotransferase increased (AE), Total [1, 6] | Insomnia (AE), Grade 1 [1, 6] | Insomnia (AE), Total [1, 6] | Pyrexia (AE), Grade 1 [1, 6] | Pyrexia (AE), Total [1, 6]
5 subjects: Diarrhoea (AE), Grade 1 [1, 6]
Eighteen: subjects with at least one AE definitely, probably or possibly related to the study drug [1, 5]
16 subjects: Abdominal pain (AE), Total [1, 6]
3 subjects: Abdominal pain (AE), Grade 1 [1, 4] | Abdominal pain (AE), Grade 1 [1, 6] | Blood bilirubin increased (AE), Grade 2 [1, 6] | Diarrhoea (AE), Grade 2 [1, 6] | Fatigue (AE), Grade 1 [1, 6] | Fatigue (AE), Grade 3 [1, 6] | Nausea (AE), Grade 2 [1, 6]
no major adverse events: major adverse events (AEs) ([1]; phase I/II study, solid tumors including pancreatic cancer)
Five: subjects reporting at least one severe adverse event (SAE) (regardless of causality) [1, 3]
7 subjects: subjects reporting at least one AE (regardless of causality) [1, 3] | Anaemia (AE), Total [1, 6] | Blood bilirubin increased (AE), Total [1, 6] | Decreased appetite (AE), Grade 1 [1, 6]
2 subjects: Urinary tract infection (AE), Grade 2 [1] | Constipation (AE), Total [1, 4] | Fatigue (AE), Grade 1 [1, 4] | Fatigue (AE), Total [1, 4] | Infusion related reaction (AE), Total [1, 4] | Nausea (AE), Grade 1 [1, 4] | Nausea (AE), Total [1, 4] | Thrombosis (AE), Grade 3 [1, 4] | Thrombosis (AE), Total [1, 4] | Alanine aminotransferase increased (AE), Grade 3 [1, 6] | Anaemia (AE), Grade 2 [1, 6] | Aspartate aminotransferase increased (AE), Grade 1 [1, 6] | Aspartate aminotransferase increased (AE), Grade 2 [1, 6] | Aspartate aminotransferase increased (AE), Grade 3 [1, 6] | Decreased appetite (AE), Grade 2 [1, 6] | Decreased appetite (AE), Grade 3 [1, 6] | Urinary tract infection (AE), Total ([1]; human, in vivo)
